{"source": "paper PMC5940780", "about": "“Functional insights into the interplay between DNA interaction and metal coordination in ferric uptake regulators” (Scientific Reports, 2018)", "molecules": {"B1": {"name": "katA promoter 60 bp (dsDNA)", "DNA 1": "ACTGAATAATTGCATTTTATTGATAATAAATTTCAAAATAAATTTAGTTTTTTTATATTA", "DNA 2": "TAATATAAAAAAACTAAATTTATTTTGAAATTTATTATCAATAAAATGCAATTATTCAGT"}, "B2": {"name": "Campylobacter jejuni Fur (ferric uptake regulator), wild type (natural protein)", "chain": "MLIENVEYDVLLERFKKILRQGGLKYTKQREVLLKTLYHSDTHYTPESLYMEIKQAEPDLNVGIATVYRTLNLLEEAEMVTSISFGSAGKKYELANKPHHDHMICKNCGKIIEFENPIIERQQALIAKEHGFKLTGHLMQLYGVCGDCNNQKAKVKI", "notes": "Ferric uptake regulator Fur of Campylobacter jejuni; wild type; in the crystal one zinc per protomer in the S1 site (C105, C108, C145, C148), S2 and S3 sites empty; Crystallised form is called CjFurZn (zinc only in S1); the earlier structure 4ETS of the same protein is called CjFurZn2 (zinc in S1 and S3); also called CjFur; CjFurZn; source: E. coli Rosetta, purified (Strep-TACTIN beads, TEV …)"}}, "key": {"[1]": {"biological_target": "T1, CjFur K17E K17E (Campylobacter jejuni NCTC11168?) (UniProt P0C631)", "T1 sequence": "B2 chain with K17E", "assay": "EMSA", "details": "20 mM Bis-Tris borate pH 7.4, 50 mM KCl, 3 mM MgCl2, 5% glycerol, 0.1% Triton X-100, 0.1 ug poly dI-dC, 2 nM DNA, 45 min on ice; holo: +50 uM MnCl2 (100 uM in …)"}, "[2]": {"biological_target": "T2, CjFur K25E K25E (Campylobacter jejuni NCTC11168?) (UniProt P0C631)", "T2 sequence": "B2 chain with K25E", "assay": "EMSA", "details": "20 mM Bis-Tris borate pH 7.4, 50 mM KCl, 3 mM MgCl2, 5% glycerol, 0.1% Triton X-100, 0.1 ug poly dI-dC, 2 nM DNA, 45 min on ice; holo: +50 uM MnCl2 (100 uM in …)"}, "[3]": {"biological_target": "T3, CjFur K28E K28E (Campylobacter jejuni NCTC11168?) (UniProt P0C631)", "T3 sequence": "B2 chain with K28E", "assay": "EMSA", "details": "20 mM Bis-Tris borate pH 7.4, 50 mM KCl, 3 mM MgCl2, 5% glycerol, 0.1% Triton X-100, 0.1 ug poly dI-dC, 2 nM DNA, 45 min on ice; holo: +50 uM MnCl2 (100 uM in …)"}, "[4]": {"biological_target": "T4, CjFur R20E R20E (Campylobacter jejuni NCTC11168?) (UniProt P0C631)", "T4 sequence": "B2 chain with R20E", "assay": "EMSA", "details": "20 mM Bis-Tris borate pH 7.4, 50 mM KCl, 3 mM MgCl2, 5% glycerol, 0.1% Triton X-100, 0.1 ug poly dI-dC, 2 nM DNA, 45 min on ice; holo: +50 uM MnCl2 (100 uM in …)"}, "[5]": {"biological_target": "T5, CjFur R30E R30E (Campylobacter jejuni NCTC11168?) (UniProt P0C631)", "T5 sequence": "B2 chain with R30E", "assay": "EMSA", "details": "20 mM Bis-Tris borate pH 7.4, 50 mM KCl, 3 mM MgCl2, 5% glycerol, 0.1% Triton X-100, 0.1 ug poly dI-dC, 2 nM DNA, 45 min on ice; holo: +50 uM MnCl2 (100 uM in …)"}, "[6]": {"biological_target": "T6, CjFur R69E R69E (Campylobacter jejuni NCTC11168?) (UniProt P0C631)", "T6 sequence": "B2 chain with R69E", "assay": "EMSA", "details": "20 mM Bis-Tris borate pH 7.4, 50 mM KCl, 3 mM MgCl2, 5% glycerol, 0.1% Triton X-100, 0.1 ug poly dI-dC, 2 nM DNA, 45 min on ice; holo: +50 uM MnCl2 (100 uM in …)"}, "[7]": {"biological_target": "T7, CjFur WT (Campylobacter jejuni NCTC11168?) (UniProt P0C631)", "T7 sequence": "B2 chain", "assay": "EMSA", "details": "20 mM Bis-Tris borate pH 7.4, 50 mM KCl, 3 mM MgCl2, 5% glycerol, 0.1% Triton X-100, 0.1 ug poly dI-dC, 2 nM DNA, 45 min on ice; holo: +50 uM MnCl2 (100 uM in …)"}, "[8]": {"biological_target": "T8, CjFur Y68A Y68A (Campylobacter jejuni NCTC11168?) (UniProt P0C631)", "T8 sequence": "B2 chain with Y68A", "assay": "EMSA", "details": "20 mM Bis-Tris borate pH 7.4, 50 mM KCl, 3 mM MgCl2, 5% glycerol, 0.1% Triton X-100, 0.1 ug poly dI-dC, 2 nM DNA, 45 min on ice; holo: +50 uM MnCl2 (100 uM in …)"}, "[9]": {"biological_target": "T9, CjFurΔS2 H43A;H102A (Campylobacter jejuni NCTC11168?) (UniProt P0C631)", "T9 sequence": "B2 chain with H43A, H102A", "assay": "EMSA", "details": "20 mM Bis-Tris borate pH 7.4, 50 mM KCl, 3 mM MgCl2, 5% glycerol, 0.1% Triton X-100, 0.1 ug poly dI-dC, 2 nM DNA, 45 min on ice; holo: +50 uM MnCl2 (100 uM in …)"}, "[10]": {"biological_target": "T10, CjFurΔS3 H99A;H137A (Campylobacter jejuni NCTC11168?) (UniProt P0C631)", "T10 sequence": "B2 chain with H99A, H137A", "assay": "EMSA", "details": "20 mM Bis-Tris borate pH 7.4, 50 mM KCl, 3 mM MgCl2, 5% glycerol, 0.1% Triton X-100, 0.1 ug poly dI-dC, 2 nM DNA, 45 min on ice; holo: +50 uM MnCl2 (100 uM in …)"}, "[11]": {"biological_target": "CjFur Y68A (UniProt P0C631 1-157, Y68A)", "assay": "EMSA; holo, 50 uM MnCl2; 0-100 nM protein; 20 mM Bis-Tris borate pH 7.4, 50 mM KCl, 3 mM MgCl2, 5% glycerol, 0.1% Triton X-100, 0.1 ug poly dI-dC, 2 nM DNA, 45 min on ice; holo: +50 uM MnCl2 (100 uM in gel); gel at 4 C", "details": "protein: recombinant; tags: N-terminal Strep tag, TEV-cleaved; chain copies: 2; label: 5' Cy5 on both strands; blunt"}, "[12]": {"biological_target": "CjFur R69E (UniProt P0C631 1-157, R69E)", "assay": "EMSA; holo, 50 uM MnCl2; 0-100 nM protein; 20 mM Bis-Tris borate pH 7.4, 50 mM KCl, 3 mM MgCl2, 5% glycerol, 0.1% Triton X-100, 0.1 ug poly dI-dC, 2 nM DNA, 45 min on ice; holo: +50 uM MnCl2 (100 uM in gel); gel at 4 C", "details": "protein: recombinant; tags: N-terminal Strep tag, TEV-cleaved; chain copies: 2; label: 5' Cy5 on both strands; blunt"}, "[13]": {"biological_target": "CjFur K25E (UniProt P0C631 1-157, K25E)", "assay": "EMSA; holo, 50 uM MnCl2; 0-100 nM protein; 20 mM Bis-Tris borate pH 7.4, 50 mM KCl, 3 mM MgCl2, 5% glycerol, 0.1% Triton X-100, 0.1 ug poly dI-dC, 2 nM DNA, 45 min on ice; holo: +50 uM MnCl2 (100 uM in gel); gel at 4 C", "details": "protein: recombinant; tags: N-terminal Strep tag, TEV-cleaved; chain copies: 2; label: 5' Cy5 on both strands; blunt"}, "[14]": {"biological_target": "CjFur R30E (UniProt P0C631 1-157, R30E)", "assay": "EMSA; holo, 50 uM MnCl2; 0-100 nM protein; 20 mM Bis-Tris borate pH 7.4, 50 mM KCl, 3 mM MgCl2, 5% glycerol, 0.1% Triton X-100, 0.1 ug poly dI-dC, 2 nM DNA, 45 min on ice; holo: +50 uM MnCl2 (100 uM in gel); gel at 4 C", "details": "protein: recombinant; tags: N-terminal Strep tag, TEV-cleaved; chain copies: 2; label: 5' Cy5 on both strands; blunt"}, "[15]": {"biological_target": "T11, CjFur WT (UniProt P0C631 1-157)", "T11 sequence": "B2 chain", "assay": "EMSA; holo, 50 uM MnCl2; 0-100 nM protein; two bound species; 20 mM Bis-Tris borate pH 7.4, 50 mM KCl, 3 mM MgCl2, 5% glycerol, 0.1% Triton X-100, 0.1 ug poly dI-dC, 2 nM DNA, 45 min on ice; holo: +50 uM MnCl2 (100 uM in gel); gel at 4 C", "details": "protein: recombinant; tags: N-terminal Strep tag, TEV-cleaved; chain copies: 2; label: 5' Cy5 on both strands; blunt"}, "[16]": {"biological_target": "the molecule itself", "assay": "crystal structure; CjFur (7.5 ug/uL) crystallised in 0.1 M Bis-Tris pH 5.5, 0.25 M MgFormate, 25% PEG3350; molecular replacement; 1.8 A; form with zinc in S1 only (CjFurZn)"}}, "note": "Changes are numbered by the printed parent chain.", "data": [{"molecule": "GGGAAAAGAGCCAAATTTAGGTGTTATCATCAATGCTGCTAATGAAGTTGGTGTTTATAATTTTTTAGAAAATAAAAGTGGATTTTTAGACATTGCTAAATGCATTTTTAAAGCCCTTGATCATTTTGGAGTACCTAAAATTTCAAGCATAGAAGAAGTTTTTGAGTATGATTTTAAAACAAGAGAGTATTTAAGGAGTTAAA (double strand) [cj1345c promoter region]", "values": [{"measurement": "binding", "setting": "[1]", "value": "binds more weakly"}, {"measurement": "binding", "setting": "[2]", "value": "no binding"}, {"measurement": "binding", "setting": "[3]", "value": "no binding"}, {"measurement": "binding", "setting": "[4]", "value": "no binding"}, {"measurement": "binding", "setting": "[5]", "value": "binds more weakly"}, {"measurement": "binding", "setting": "[6]", "value": "no binding"}, {"measurement": "binding", "setting": "[7]", "value": "binds"}, {"measurement": "binding", "setting": "[8]", "value": "binds more weakly"}, {"measurement": "binding", "setting": "[9]", "value": "binds more weakly"}, {"measurement": "binding", "setting": "[10]", "value": "binds more weakly"}]}, {"molecule": "B1", "values": [{"measurement": "binding result", "setting": "[11]", "value": "no binding"}, {"measurement": "binding result", "setting": "[12]", "value": "no binding"}, {"measurement": "binding result", "setting": "[13]", "value": "no binding"}, {"measurement": "binding result", "setting": "[14]", "value": "no binding"}, {"measurement": "binding result", "setting": "[15]", "value": "binds"}]}, {"molecule": "B2", "values": [{"measurement": "stoichiometry N", "setting": "[16]", "value": 2}]}]}
